Results from article PMC4351158 (Structure (London, England : 1993), 2015).
Where no end group is shown, it is not given here. fluorescein = fluorescein, a fluorescent label on the peptide N-terminus

Tests used:
Assay in all cases: fluorescence polarisation
DegS H198P/E230A = biological target: T1, DegS H198P/E230A (E. coli, UniProt P0AEE3 27-355, H198P | E230A)
T1 sequence (looked up): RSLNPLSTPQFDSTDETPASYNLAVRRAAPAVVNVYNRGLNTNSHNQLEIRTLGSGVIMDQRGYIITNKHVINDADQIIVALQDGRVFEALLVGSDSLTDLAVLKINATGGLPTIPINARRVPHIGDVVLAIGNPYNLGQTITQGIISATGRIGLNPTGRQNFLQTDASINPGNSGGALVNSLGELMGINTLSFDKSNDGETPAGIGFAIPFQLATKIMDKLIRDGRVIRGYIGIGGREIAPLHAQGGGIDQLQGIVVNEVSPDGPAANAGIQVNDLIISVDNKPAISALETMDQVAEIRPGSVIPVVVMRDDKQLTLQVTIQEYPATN

DegS T167V = biological target: T2, DegS T167V (E. coli, UniProt P0AEE3 27-355, T167V)
T2 sequence (looked up): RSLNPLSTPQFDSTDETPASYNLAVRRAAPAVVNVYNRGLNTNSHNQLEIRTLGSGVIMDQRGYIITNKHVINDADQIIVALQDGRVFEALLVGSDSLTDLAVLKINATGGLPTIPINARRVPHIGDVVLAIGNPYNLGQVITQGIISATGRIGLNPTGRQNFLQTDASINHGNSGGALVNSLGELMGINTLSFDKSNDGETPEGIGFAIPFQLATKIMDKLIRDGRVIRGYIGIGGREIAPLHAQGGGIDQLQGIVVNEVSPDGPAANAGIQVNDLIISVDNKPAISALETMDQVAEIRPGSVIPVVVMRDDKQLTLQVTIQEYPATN

DegS P229A = biological target: T3, DegS P229A (E. coli, UniProt P0AEE3 27-355, P229A)
T3 sequence (looked up): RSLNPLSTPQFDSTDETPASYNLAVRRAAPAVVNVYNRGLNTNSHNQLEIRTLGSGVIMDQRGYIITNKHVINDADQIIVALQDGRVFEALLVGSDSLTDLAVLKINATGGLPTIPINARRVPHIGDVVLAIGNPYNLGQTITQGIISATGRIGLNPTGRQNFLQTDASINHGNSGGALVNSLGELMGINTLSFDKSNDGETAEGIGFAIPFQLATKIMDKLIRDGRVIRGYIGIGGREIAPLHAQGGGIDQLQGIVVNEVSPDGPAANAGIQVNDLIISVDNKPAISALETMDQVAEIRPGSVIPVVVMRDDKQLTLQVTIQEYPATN

DegS R178A/H198P = biological target: T4, DegS R178A/H198P (E. coli, UniProt P0AEE3 27-355, R178A | H198P)
T4 sequence (looked up): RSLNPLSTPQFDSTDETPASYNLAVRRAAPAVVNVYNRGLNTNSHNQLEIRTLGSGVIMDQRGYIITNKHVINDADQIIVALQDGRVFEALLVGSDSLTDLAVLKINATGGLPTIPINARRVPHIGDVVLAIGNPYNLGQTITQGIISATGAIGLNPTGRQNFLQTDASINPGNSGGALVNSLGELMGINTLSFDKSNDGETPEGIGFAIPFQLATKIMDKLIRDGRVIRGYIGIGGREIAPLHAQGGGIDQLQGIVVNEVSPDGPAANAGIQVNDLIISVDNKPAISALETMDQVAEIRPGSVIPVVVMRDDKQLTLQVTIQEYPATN

DegS H198P/I232A = biological target: T5, DegS H198P/I232A (E. coli, UniProt P0AEE3 27-355, H198P | I232A)
T5 sequence (looked up): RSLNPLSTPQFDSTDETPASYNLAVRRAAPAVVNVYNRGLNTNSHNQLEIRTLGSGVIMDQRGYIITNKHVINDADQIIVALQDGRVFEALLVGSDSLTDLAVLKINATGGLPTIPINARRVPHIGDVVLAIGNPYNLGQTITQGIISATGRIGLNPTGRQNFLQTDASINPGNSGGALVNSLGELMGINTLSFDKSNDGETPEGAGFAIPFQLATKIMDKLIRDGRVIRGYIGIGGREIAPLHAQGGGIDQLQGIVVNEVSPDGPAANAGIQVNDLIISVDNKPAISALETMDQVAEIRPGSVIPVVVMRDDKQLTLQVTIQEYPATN

Kd (DegS H198P/E230A): 1800 ± 400 nM | Kd (DegS T167V): 1800 ± 100 nM | Kd (DegS P229A): 1600 ± 200 nM | Kd (DegS R178A/H198P): 4000 ± 100 nM | Kd (DegS H198P/I232A): 2700 ± 300 nM
B1: fluorescent OMP peptide fluorescein-DNRDGNVYYF (peptide)
peptide: fluorescein-DNRDGNVYYF
